This passage reports protein stability index results from the supplement of paper PMC10567573.

The nature of this data set: protein stability index of a GFP-peptide fusion (GPS, HEK-293T) (PSI 1-6); higher = more stable.
The mark [1] stands for this setting: treatment: DMSO, c terminus: a fixed tail appended.
Setting [2] is: treatment: MLN4924 1 uM, 8 h, c terminus: a fixed tail appended.

± gives the standard deviation.
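Further: 24-mer peptide tiles fused after GFP, lentivirally expressed, FACS-sorted into six equal bins by GFP/DsRed ratio, decoded by Illumina sequencing, PSI is the read-weighted mean bin number.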

Consider FYSQEWYARQHCPLKNPTFLDYVR [SOAT1], for which the protein stability index came to 2.4 ± 0.47 under setting [1] and 2.13 ± 0.25 under setting [2].

As for GALWGLQAQAVQTEQAVALLRDRT [SCARA5], the protein stability index runs as follows: under setting [1], 3.07 ± 0.23; under setting [2], 3.03 ± 0.31.

On to GASSPAAYDEALAELHAHGPAAFV [ZSWIM9], for which the protein stability index by setting is: under setting [1], 3.87 ± 0.22; under setting [2], 3.99 ± 0.19.

For GAYSSASSFSRPLGYPYVNSVSSH [DLX1], the protein stability index by setting is: under setting [1], 3.1 ± 0.15; under setting [2], 3.12 ± 0.25.

Turning to GDASECPQATNAKDSGCSSPGAH [PPEF2], the protein stability index (treatment: DMSO, c terminus: native) is 5.78 ± 0.1 and the protein stability index (treatment: MLN4924 1 uM, 8 h, c terminus: native) was 5.57 ± 0.12.

As to GDKGALQRLIVGNSALKDKEDQFG [INVS], the protein stability index came out at 4.62 ± 0.21 under setting [1] and 4.72 ± 0.093 under setting [2].

GEELADVGGVLRGLNHSLSYDVAL [SCARA5] returned a protein stability index under setting [1] of 3.4 ± 0.17 and a protein stability index under setting [2] of 3.41 ± 0.21.

Consider GEFRTGKTQICHTLAVTCQLPIDR [RAD51], for which the protein stability index worked out at 2.73 ± 0.52 under setting [1] and 3.02 ± 0.29 under setting [2].

In the case of GGDEVDDSVSVNDIDLSLYIPRDV [ZC3H15], the protein stability index under setting [1] was 4.62 ± 0.13 and the protein stability index under setting [2] turned out to be 4.45 ± 0.61.

Turning to GGFPIIRDQIFRYVHDPECVATTG [FBXO3], the protein stability index turned out to be 2.14 ± 0.29 under setting [1] and 2.7 ± 0.57 under setting [2].

As to GGGSYGKLFESVECYDPRTQQWTA [GAN], the protein stability index by setting is: under setting [1], 3 ± 0.13; under setting [2], 3.13 ± 0.29.

For the sequence GGPAQNAPHQQPPAPPSDALLDLH [TFE3], the protein stability index was 5.06 ± 0.29 under setting [1] and 5.29 ± 0.2 under setting [2].

Consider GGSELGGWSLGRWTHDGIDINNNF [CPXM2], for which the protein stability index stood at 3.06 ± 0.031 under setting [1] and 2.64 ± 0.054 under setting [2].

Consider GGVGYGDSKDCILEPLSLPESPGG [ZNF277], for which the protein stability index amounted to 4.43 ± 0.37 under setting [1] and 4.98 ± 0.19 under setting [2].

Take GHLRGPEIRDWRGPQLEGEKDWGL [ZSWIM9]: the protein stability index under setting [1] was determined as 3.66 ± 0.39 and the protein stability index under setting [2] came out at 3.52 ± 0.47.

As for GIAIVSVLVILISIVIFCLETLPE [KCNA3], the protein stability index by setting is: under setting [1], 2.21 ± 0.26; under setting [2], 2.36 ± 0.46.

As for GIFKIEDSAQVARLWGIRKNRPAM [SPDEF], the protein stability index was determined as 2.71 ± 0.4 under setting [1] and 2.86 ± 0.3 under setting [2].

For the sequence GKTKKDYQEASNLEQFVTRFLLKE [NECAB1], the protein stability index by setting is: under setting [1], 2.97 ± 0.3; under setting [2], 3.36 ± 0.37.

As to GLAFIAFTEAMTHFPASPFWSVMF [SLC6A17], the protein stability index was found to be 3.15 ± 0.1 under setting [1] and 3.13 ± 0.51 under setting [2].

With GLERRDWSPSPPATPEQGLSAFYL [SPDEF], the protein stability index is, setting by setting: under setting [1], 3.03 ± 0.25; under setting [2], 2.84 ± 0.15.

On to GLGFASNAFQETWYWHGDVNSNKV [LOXL2], for which the protein stability index came out at 3.04 ± 0.12 under setting [1] and 2.44 ± 0.29 under setting [2].

With GLQAQILHCYRDRPHEVLLCSDLV [CHCHD6], the protein stability index reads like this: under setting [1], 2.39 ± 0.39; under setting [2], 2.16 ± 0.33.

Consider GLQLPSTLPVSGNLLDVYSSQGVA [TFE3], for which the protein stability index came out at 3.15 ± 0.53 under setting [1] and 3.4 ± 0.36 under setting [2].

In turn, GLRKRIATLFFHYIKTPLFNPEVA [IQUB] registered a protein stability index under setting [1] of 2.12 ± 0.36 and a protein stability index under setting [2] of 2.19 ± 0.74.

GMANGQQWLQSTSGSQRHMVGQKD [TLE6]: the protein stability index under setting [1] is 4.49 ± 0.17 and the protein stability index under setting [2] was 4.47 ± 0.29.

As to GPGTPTGPSLPSKRESPGVGGGSG [ZBTB22], the protein stability index stood at 5.14 ± 0.31 under setting [1] and 4.96 ± 0.27 under setting [2].

Consider GPLVPRLAGMANHGSPQLGEGMFQ [TBX5], for which the protein stability index reads like this: under setting [1], 3.67 ± 0.26; under setting [2], 3.75 ± 0.15.

As for GPSVSEPPGLPRVSAYVDTTADLD [SPATS1], the protein stability index was determined as 5.16 ± 0.41 under setting [1] and 5.18 ± 0.25 under setting [2].

GQTVTIWAANAGVTASPPTDLIWK [LMNB1]: the protein stability index came to 2.37 ± 0.35 under setting [1] and 2.34 ± 0.32 under setting [2].

Take GRDWRHLPTITSELSGAPRCHTVP [PXN]: the protein stability index was 3.44 ± 0.48 under setting [1] and 3.51 ± 0.17 under setting [2].

Consider GSEENGRYFSLSLMSGALAVNQKI [PCDHGC5], for which the protein stability index by setting is: under setting [1], 2.49 ± 0.2; under setting [2], 2.6 ± 0.23.

As to GSIMTVWLSTAPTEPLTHWYQVRC [CARM1], the protein stability index by setting is: under setting [1], 2.74 ± 0.99; under setting [2], 2.84 ± 0.23.

Turning to GSPEQLQIPVTDSGRHILEDSCAE [SDE2], the protein stability index reads like this: under setting [1], 5.18 ± 0.27; under setting [2], 5.5 ± 0.35.

In the case of GSQIHDQFILRVSPDLEWHAACLK [ISL2], the protein stability index runs as follows: under setting [1], 2.3 ± 0.43; under setting [2], 2.66 ± 0.54.

As for GSQLEDQALRGLEGYTWRVAQLED [ZSWIM9], the protein stability index is, setting by setting: under setting [1], 3.98 ± 0.55; under setting [2], 4.25 ± 0.2.

GSTLAMLQRLKEQQFVIAGVLVED [ZBED1]: the protein stability index is 2.22 ± 0.46 under setting [1] and 2.1 ± 0.19 under setting [2].

On to GTAFDAETDSEMNSQESRSDLEDM [SMG5], for which the protein stability index amounted to 5.63 ± 0.24 under setting [1] and 5.5 ± 0.49 under setting [2].

As to GVCMGLVAAACACGFTVAQIITSL [OR10K2], the protein stability index was found to be 3.21 ± 0.34 under setting [1] and 3.04 ± 0.69 under setting [2].

Sequence GVMLTWPDGLMYQKFRNQFLSFSM [TMEM120A] displayed a protein stability index under setting [1] of 2.89 ± 0.98 and a protein stability index under setting [2] of 2.69 ± 0.43.

For the sequence GVSSVDSAFSSRGSLSLSFEREPS [RIPK4], the protein stability index reads like this: under setting [1], 4.33 ± 0.77; under setting [2], 4.8 ± 0.52.

For GWSKGFIGMHREMQVNPISKRMGP [RHOBTB1], the protein stability index is, setting by setting: under setting [1], 2.63 ± 0.32; under setting [2], 2.61 ± 0.12.

GYSLADWVCLAYFTSGFNAAALDY [SPACA3]: the protein stability index turned out to be 3.33 ± 0.44 under setting [1] and 2.98 ± 0.13 under setting [2].

Consider HAACLKCAECSQYLDETCTCFVRD [ISL2], for which the protein stability index runs as follows: under setting [1], 4.67 ± 0.22; under setting [2], 4.83 ± 0.23.

Consider HAAQGGPLLCPGCQGQPQGKAVVS [ELOA2], for which the protein stability index runs as follows: under setting [1], 3.9 ± 0.36; under setting [2], 4.09 ± 0.24.

HALATRASDYSKKSNVLKLKTADW [PSD2]: the protein stability index reads like this: under setting [1], 3.13 ± 0.18; under setting [2], 3.17 ± 0.17.

Turning to HCKAGLGRTGTLIACYVMKHYRFT [CDC14A], the protein stability index reads like this: under setting [1], 3.52 ± 0.52; under setting [2], 2.76 ± 0.37.

Take HECILPFVQVKGNFARLQTCISEL [M1AP]: the protein stability index reads like this: under setting [1], 2.21 ± 0.11; under setting [2], 2.21 ± 0.13.

For the sequence HESQQLATETQALAQRTQQDSTRT [TEKT4], the protein stability index by setting is: under setting [1], 5.41 ± 0.23; under setting [2], 5.43 ± 0.074.

Turning to HGPGHETPMTIPEFFRESVNRFGT [ACSBG2], the protein stability index reads like this: under setting [1], 3.54 ± 0.29; under setting [2], 3.6 ± 0.13.

With HGTKNVTNSSSLRLPRQNSDGGQK [WSB1], the protein stability index runs as follows: under setting [1], 4.96 ± 0.2; under setting [2], 4.87 ± 0.47.

Regarding HGVLSAEGFLFVFGGQDENKQTLS [GAN], the protein stability index is, setting by setting: under setting [1], 2.43 ± 0.27; under setting [2], 2.65 ± 0.073.

For HHSHSGPEISRIIVDPTTGKRYCR [PLK2], the protein stability index amounted to 4.08 ± 0.16 under setting [1] and 4.32 ± 0.17 under setting [2].

Regarding HIKEILITAGGENVPPIPVETLVK [ACSBG2], the protein stability index reads like this: under setting [1], 2.71 ± 0.38; under setting [2], 2.88 ± 0.2.

Regarding HKVAPLVQSLCAKHGIEYQSKPLL [FADS1], the protein stability index under setting [1] was 2.68 ± 0.34 and the protein stability index under setting [2] was 3 ± 0.17.

Turning to HLEYRFYKQLGSAGEGLPQVYYFG [CSNK1G1], the protein stability index by setting is: under setting [1], 2.2 ± 0.47; under setting [2], 2.15 ± 0.68.

In turn, HLNRGNHEDHMVNLRYGFTKEVMN [PPEF2] yielded a protein stability index under setting [1] of 2.99 ± 0.3 and a protein stability index under setting [2] of 3.16 ± 0.42.

As for HLSSQQASGQSYSSREVFTSSSSS [KRT16], the protein stability index is, setting by setting: under setting [1], 4.63 ± 0.21; under setting [2], 4.58 ± 0.17.

As for HNCQLHRISFCADDKTDKRIFTFI [GULP1], the protein stability index under setting [1] stood at 2.61 ± 0.36 and the protein stability index under setting [2] is 2.4 ± 0.52.

For the sequence HNGKIYISGGVHNGEYVPWLYCYD [KLHL14], the protein stability index reads like this: under setting [1], 2.13 ± 0.68; under setting [2], 2.32 ± 0.48.

HNIFLLGGSSTSERCLLNNSLWKK [NLN]: the protein stability index reads like this: under setting [1], 2.39 ± 0.13; under setting [2], 2.24 ± 0.39.

As for HNIVFGDYTWTEFDEPFLTRNVQS [TRIP13], the protein stability index by setting is: under setting [1], 2.63 ± 0.06; under setting [2], 2.61 ± 0.32.

As to HPSGHWATCRLCGEQVGRGPGFHA [ZBED3], the protein stability index reads like this: under setting [1], 2.52 ± 0.069; under setting [2], 3.05 ± 0.29.

Take HRVKLTNSTLDPHGHLILHSMHKY [TBX6]: the protein stability index under setting [1] was 2.37 ± 0.35 and the protein stability index under setting [2] stood at 2.71 ± 0.2.

Consider HSEGRVEVYYDGQWGTVCDDDFSI [LOXL2], for which the protein stability index was 3.23 ± 0.33 under setting [1] and 3.56 ± 0.33 under setting [2].

In turn, HSEILKYFQSVTSNRWLMVKIFLI [STX5] gave a protein stability index under setting [1] of 2.32 ± 0.36 and a protein stability index under setting [2] of 2.4 ± 0.43.

Sequence HSEVVEELVSADVIDLFDEQGLSA [RIPK4] returned a protein stability index under setting [1] of 5.02 ± 0.52 and a protein stability index under setting [2] of 4.98 ± 0.52.

For the sequence HSGQVTILKLEQENCTLVTTFRGH [WDFY2], the protein stability index by setting is: under setting [1], 2.35 ± 0.26; under setting [2], 2.29 ± 0.28.

As to HTDSKYEHAIAEAQKNMYFKTRLK [ZNF396], the protein stability index runs as follows: under setting [1], 3.8 ± 0.22; under setting [2], 3.5 ± 0.32.

As for HYWELDVDNSCDWALGVCNNSWIR [TRIM43], the protein stability index by setting is: under setting [1], 2.25 ± 0.21; under setting [2], 2.2 ± 0.34.

With IADLFVADQRSRMLSIFYFAIPVG [SPNS1], the protein stability index runs as follows: under setting [1], 3.08 ± 0.65; under setting [2], 2.94 ± 0.41.

For the sequence IAIARLRGSDLKVLEVTEESIDFD [FBXO33], the protein stability index by setting is: under setting [1], 2.73 ± 0.3; under setting [2], 2.77 ± 0.47.

As to IAPVLKLASHHNHFSQIVIFMLCT [OR10K2], the protein stability index under setting [1] was 3.25 ± 0.75 and the protein stability index under setting [2] was found to be 3.2 ± 0.83.
